Measured values from patent US20220323561A1 (ENTEROME S A, published 2022).

Target: T1, HLA-A*0201 molecule expressed on human T2 cells (human)
T1 construct: also called HLA-A2
Assay: T2 cells (HLA-A*0201), peptide at 0.1 µM, anti-HLA-A2 flow cytometry
Method: (§1) T2 cells (5.104 cells per well) are incubated with decreasing concentrations of peptides from 100 μM to 0.1 μM (4 points: 100 μM, 10 μM, 1 μM, 0.1 μM) in serum-free medium (TexMacs) supplemented with […] of β2 Microglobulin at 37° C. for 16 hours. Cells are then washed two times and marked with the anti-HLA-A2 antibody coupled to PE (clone BB7.2, BD Pharmagen).
(§2) The relative affinity is then determined as follows: […]

Binder | mean relative fluorescence intensity (HIV peptide = 100)
LQMGGFYLL [CD19-B7] | 6 % of HIV pol 589-597 at 100 µM
YLFLGILSL [MS4A1-B5] | 0 % of HIV pol 589-597 at 100 µM
LMFGAPALV [TNFRSF13C-B1] | 1 % of HIV pol 589-597 at 100 µM
FMPGLLFGA [TNFRSF13C-B33] | 0 % of HIV pol 589-597 at 100 µM
YLAYLIFEL [CD19-B6] | 0 % of HIV pol 589-597 at 100 µM
LMIPAGIYA [MS4A1-H3] | 0 % of HIV pol 589-597 at 100 µM
GMAFVPLLL (also called CD37-B11i) [CD37-B11] | 0 % of HIV pol 589-597 at 100 µM
ILPGLLFGL [TNFRSF13C-B31] | 0 % of HIV pol 589-597 at 100 µM
PLPGLLFGA [TNFRSF13C-H3] | 0 % of HIV pol 589-597 at 100 µM
SLVGILHLQ [CD19-H1] | 1 % of HIV pol 589-597 at 100 µM
GLAFVPLQI [CD37-H1] | 2 % of HIV pol 589-597 at 100 µM
WVFEHPETL [CD22-H1] | 2 % of HIV pol 589-597 at 100 µM
YVFEHPELL [CD22-B11] | 6.4 % of HIV pol 589-597 at 100 µM

Target: T1, HLA-A*0201 molecule expressed on human …
Assay: T2 cells (HLA-A*0201), peptide at 1 µM, anti-HLA-A2 flow cytometry
Method: as §1, §2

Binder | mean relative fluorescence intensity (HIV peptide = 100)
LQMGGFYLL [CD19-B7] | 4.8 % of HIV pol 589-597 at 100 µM
YLFLGILSL [MS4A1-B5] | 0.2 % of HIV pol 589-597 at 100 µM
LMFGAPALV [TNFRSF13C-B1] | 7 % of HIV pol 589-597 at 100 µM
FMPGLLFGA [TNFRSF13C-B33] | 1.3 % of HIV pol 589-597 at 100 µM
YLAYLIFEL [CD19-B6] | 5.4 % of HIV pol 589-597 at 100 µM
LMIPAGIYA [MS4A1-H3] | 0.9 % of HIV pol 589-597 at 100 µM
GMAFVPLLL (also called CD37-B11i) [CD37-B11] | 1.6 % of HIV pol 589-597 at 100 µM
ILPGLLFGL [TNFRSF13C-B31] | 1.5 % of HIV pol 589-597 at 100 µM
PLPGLLFGA [TNFRSF13C-H3] | 0 % of HIV pol 589-597 at 100 µM
SLVGILHLQ [CD19-H1] | 0 % of HIV pol 589-597 at 100 µM
GLAFVPLQI [CD37-H1] | 0 % of HIV pol 589-597 at 100 µM
WVFEHPETL [CD22-H1] | 10 % of HIV pol 589-597 at 100 µM
YVFEHPELL [CD22-B11] | 60.5 % of HIV pol 589-597 at 100 µM

Target: T1, HLA-A*0201 molecule expressed on human …
Assay: T2 cells (HLA-A*0201), peptide titration, anti-HLA-A2 flow cytometry
Method: as §1, §2

Binder | concentration of peptide that induces 20% of HLA-A2 expression [µM] | in vitro binding affinity (relative to HIV pol reference peptide)
LQMGGFYLL [CD19-B7] | 49.6 | 6.8 ratio to HIV pol 589-597
YLFLGILSL [MS4A1-B5] | 6.77 | 0.7 ratio to HIV pol 589-597
LMFGAPALV [TNFRSF13C-B1] | 4.35 | 1.1 ratio to HIV pol 589-597
FMPGLLFGA [TNFRSF13C-B33] | 13.2 | 3.5 ratio to HIV pol 589-597
YLAYLIFEL [CD19-B6] | 3.76 | 0.4 ratio to HIV pol 589-597
LMIPAGIYA [MS4A1-H3] | 4.83 | 0.5 ratio to HIV pol 589-597
GMAFVPLLL (also called CD37-B11i) [CD37-B11] | 2.3 | 3 ratio to HIV pol 589-597
ILPGLLFGL [TNFRSF13C-B31] | 1.6 | 0.4 ratio to HIV pol 589-597
GLAFVPLQI [CD37-H1] | 7.35 | 17.5 ratio to HIV pol 589-597
WVFEHPETL [CD22-H1] | 1.97 | 5.3 ratio to HIV pol 589-597
YVFEHPELL [CD22-B11] | 0.2 | 0.5 ratio to HIV pol 589-597

Target: T1, HLA-A*0201 molecule expressed on human …
Assay: T2 cells (HLA-A*0201), peptide at 100 µM, anti-HLA-A2 flow cytometry
Method: as §1, §2

Binder | mean relative fluorescence intensity (HIV peptide = 100)
LQMGGFYLL [CD19-B7] | 31.8 % of HIV pol 589-597 at 100 µM
LMFGAPALV [TNFRSF13C-B1] | 90 % of HIV pol 589-597 at 100 µM
FMPGLLFGA [TNFRSF13C-B33] | 99.6 % of HIV pol 589-597 at 100 µM
LMIPAGIYA [MS4A1-H3] | 92.6 % of HIV pol 589-597 at 100 µM
GMAFVPLLL (also called CD37-B11i) [CD37-B11] | 57.8 % of HIV pol 589-597 at 100 µM
ILPGLLFGL [TNFRSF13C-B31] | 104 % of HIV pol 589-597 at 100 µM
PLPGLLFGA [TNFRSF13C-H3] | 8.4 % of HIV pol 589-597 at 100 µM
SLVGILHLQ [CD19-H1] | 0 % of HIV pol 589-597 at 100 µM
GLAFVPLQI [CD37-H1] | 153 % of HIV pol 589-597 at 100 µM
WVFEHPETL [CD22-H1] | 158 % of HIV pol 589-597 at 100 µM
YVFEHPELL [CD22-B11] | 141 % of HIV pol 589-597 at 100 µM

Target: T1, HLA-A*0201 molecule expressed on human …
Assay: T2 cells (HLA-A*0201), peptide at 10 µM, anti-HLA-A2 flow cytometry
Method: as §1, §2

Binder | mean relative fluorescence intensity (HIV peptide = 100)
LQMGGFYLL [CD19-B7] | 4.5 % of HIV pol 589-597 at 100 µM
YLFLGILSL [MS4A1-B5] | 29.8 % of HIV pol 589-597 at 100 µM
LMFGAPALV [TNFRSF13C-B1] | 37 % of HIV pol 589-597 at 100 µM
FMPGLLFGA [TNFRSF13C-B33] | 15.5 % of HIV pol 589-597 at 100 µM
YLAYLIFEL [CD19-B6] | 52.5 % of HIV pol 589-597 at 100 µM
LMIPAGIYA [MS4A1-H3] | 35.7 % of HIV pol 589-597 at 100 µM
GMAFVPLLL (also called CD37-B11i) [CD37-B11] | 48.9 % of HIV pol 589-597 at 100 µM
ILPGLLFGL [TNFRSF13C-B31] | 71.9 % of HIV pol 589-597 at 100 µM
PLPGLLFGA [TNFRSF13C-H3] | 0 % of HIV pol 589-597 at 100 µM
SLVGILHLQ [CD19-H1] | 1 % of HIV pol 589-597 at 100 µM
GLAFVPLQI [CD37-H1] | 27 % of HIV pol 589-597 at 100 µM
WVFEHPETL [CD22-H1] | 71 % of HIV pol 589-597 at 100 µM
YVFEHPELL [CD22-B11] | 124 % of HIV pol 589-597 at 100 µM
